According to patent US20240117030A1 (Pfizer, published 2024):
Where a chain is given by its changes, count along the chain named. Where two headings read alike, the source gives them in different places.

Assays:
Experiment in all cases: cell-based or functional assay
[1] = biological target: T1, recombinant human IL-33 (R&D Systems 3625-IL), reduced with DTT (human, UniProt O95760 112-270, limits assumed)
T1 sequence (looked up): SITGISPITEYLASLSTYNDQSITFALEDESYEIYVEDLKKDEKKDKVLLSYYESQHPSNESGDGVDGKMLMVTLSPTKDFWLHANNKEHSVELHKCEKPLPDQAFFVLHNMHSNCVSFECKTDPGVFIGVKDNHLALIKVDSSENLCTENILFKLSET

[2] = biological target: T2, human IL-4 (human, UniProt P05112 25-153)
T2 sequence (looked up): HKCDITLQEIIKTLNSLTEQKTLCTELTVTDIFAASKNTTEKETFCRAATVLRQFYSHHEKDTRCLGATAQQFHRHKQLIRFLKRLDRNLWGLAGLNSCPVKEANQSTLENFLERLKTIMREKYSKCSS

[3] = biological target: T3, human IL-4 (human, UniProt P05112 25-153); remark: listed apart in the source
T3 sequence (looked up): T2 sequence (looked up)

[4] = biological target: T2, human IL-4; remark: listed apart in the source
[5] = biological target: T2, human IL-4; remark: listed apart in the source

B1: IL33-0698 (antibody, IgG1, V domains shown)
VH: EVQLVESGGGLVQPGGSLRLSCAASGFTFSSYWMYWVRQAPGKGLEWVAAITPNAHAGYYPESVKGRFTISRDNAKNSLYLQMNSLRAEDTAVYYCARGHYYYTSYSLGYWGQGTLVTVSS
VL: DIQMTQSPSSLSASVGDRVTITCRASQPISKHLDWYQQKPGKAPKLLIYFTNNLQTGVPSRFSGSGSGTDFTLTISSLQPEDFATYYCFQYKQGWTFGGGTKVEIK
- IC50 [nM] versus reduced human IL-33 (R&D), IC50 (AVE) [1]: 0.014 nM

B2: IL33-0713 (antibody, IgG1, V domains shown)
VH: B1 VH with A55K, H56G, A57V, G58D
VL: B1 VL with N52K, Q55V, K92N
- IC50 [nM] versus reduced human IL-33 (R&D), IC50 (AVE) [1]: 0.012 nM

B3: IL33-0714 (antibody, IgG1, V domains shown)
VH: B1 VH with A55K, H56G, A57V, G58D
VL: B1 VL with N52K, Q55K, K92N
- IC50 [nM] versus reduced human IL-33 (R&D), IC50 (AVE) [1]: 0.009 nM

B4: IL33-0711 (antibody, IgG1, V domains shown)
VH: B1 VH
VL: B1 VL with N52K, Q55K, K92N
- IC50 [nM] versus reduced human IL-33 (R&D), IC50 (AVE) [1]: 0.007 nM

B5: IL33-0701 (antibody, IgG1, V domains shown)
VH: B1 VH with A55K, H56G, A57V, G58D
VL: B1 VL
- IC50 [nM] versus reduced human IL-33 (R&D), IC50 (AVE) [1]: 0.013 nM

B6: IL33-0710 (antibody, IgG1, V domains shown)
VH: B1 VH
VL: B1 VL with N52K, Q55V, K92N
- IC50 [nM] versus reduced human IL-33 (R&D), IC50 (AVE) [1]: 0.013 nM

B7: IL33-0715 (antibody, IgG1, V domains shown)
VH: B1 VH with A55K, H56G, A57V, G58D
VL: B1 VL with N52K, T56S, K92N
- IC50 [nM] versus reduced human IL-33 (R&D), IC50 (AVE) [1]: 0.012 nM

B8: IL33-0712 (antibody, IgG1, V domains shown)
VH: B1 VH
VL: B1 VL with N52K, T56S, K92N
- IC50 [nM] versus reduced human IL-33 (R&D), IC50 (AVE) [1]: 0.01 nM

B9: IL4-0002 (antibody, human IgG1, kappa)
heavy: EVTLRESGPALVKPTQTLTLTCTFSGFSLSNFGEGLSWIRQPPGKGLEWLAHIYWDDDKRYNPSLKSRLTISKDTSRNQVVLTMTNMDPVDTATYYCARRETVFYWYFDVWGQGTTVTVSSASTKGPSVFPLAPSSKSTSGGTAALGCLVKDYFPEPVTVSWNSGALTSGVHTFPAVLQSSGLYSLSSVVTVPSSSLGTQTYICNVNHKPSNTKVDKKVEPKSCDKTHTCPPCPAPEAAGAPSVFLFPPKPKDTLMISRTPEVTCVVVDVSHEDPEVKFNWYVDGVEVHNAKTKPREEQYNSTYRVVSVLTVLHQDWLNGKEYKCKVSNKALPAPIEKTISKAKGQPREPQVYTLPPSREEMTKNQVSLTCLVKGFYPSDIAVEWESNGQPENNYKTTPPVLDSDGSFFLYSKLTVDKSRWQQGNVFSCSVMHEALHNHYTQKSLSLSPGK
light: DIQMTQSPSSLSASVGDRVTITCKASQSVDEDGDSYMNWYQQKPGKAPKLLIYAASNLESGVPSRFSGSGSGTDFTLTISSLQPEDFATYYCQQSNEDPPTFGGGTKVEIKRTVAAPSVFIFPPSDEQLKSGTASVVCLLNNFYPREAKVQWKVDNALQSGNSQESVTEQDSKDSTYSLSSTLTLSKADYEKHKVYACEVTHQGLSSPVTKSFNRGEC
- CD23: Fold bioactivity relative to IL4-0002 [2]: 1 fold
- CD23 IC50 [pM] [2]: 2.1 pM

B10: IL4-0002 (antibody, human IgG1, kappa)
heavy: B9 heavy
light: B9 light
- a-hIL-4 bioassay IC50, pM) [3]: 2.39 pM

B11: IL13433-0607 (trispecific antibody, human IgG1, kappa)
heavy: EVQLVESGGGLVQPGGSLRLSCAASGFTFSSYAMSWVRQAPGKGLEWVASISTGDTTYYPDSVKGRFTISRDNAKNSLYLQMNSLRAEDTAVYYCARNEGYYFGLTQWGRGTLVTVSSASTKGPSVFPKAPSSKSTSGGTAALGCLVKDYFPEPVTVSWNSGALTSGVHTFPAVLQSSGLYSLSSSVTVPSSSLGTQTYICNVNHKPSNTKVDKKVEPKSCDKTHTCPPCPAPEAAGAPSVFLFPPKPKDTLMISRTPEVTCVVVDVSHEDPEVKFNWYVDGVEVHNAKTKPREEQYNSTYRVVSVLTVLHQDWLNGKEYKCKVSNKALPAPIEKTISKAKGQPREPQVCTLPPSREEMTKNQVSLWCLVKGFYPSDIAVEWESNGQPENNYKTTPPVLDSDGSFFLYSKLTVDKSRWQQGNVFSCSVLHEALHSHYTQKSLSLSPGK
chain 1: DIQMTQSPSSLSASVGDRVTITCRASQPISKHLDWYQQKPGKAPKLLIYFTNNLQTGVPSRFSGSGSGTDFTLTISSLQPEDFATYYCFQYNQGWTFGGGTKVEIKRTVAAPSVFIFPPSDEQLKSGTASVVCLLNNFYPREAKVQWKVDNALQSGNSQESVTEQDSKDSTYSLSSTLTLSKADYEKHKVYACEVTHQGLSSPVTKSFNRGECGGGGSEVTLRESGPALVKPTQTLTLTCTFSGFSLSNFGEGLSWIRQPPGKGLEWLAHIYWDDDKRYSTSLKTRLTISKDTSRNQVVLTMTNMDPVDTATYYCARRETVFYWYFDVWGQGTTVTVSSASTKGPSVFPEAPSSKSTSGGTAALGCLVKDYFPEPVTVSWNSGALTSGVHTFPAVLQSSGLYSLGSVVTVPSSSLGTQTYICNVNHKPSNTKVDKKVEPKSCDKTHTCPPCPAPEAAGAPSVFLFPPKPKDTLMISRTPEVTCVVVDVSHEDPEVKFNWYVDGVEVHNAKTKPREEQYNSTYRVVSVLTVLHQDWLNGKEYKCKVSNKALPAPIEKTISKAKGQPREPQVYTLPPCREEMTKNQVSLSCAVKGFYPSDIAVEWESNGQPENNYKTTPPVLDSDGSFFLVSKLTVDKSRWQQGNVFSCSVLHEALHSHYTQKSLSLSPGK
light 1: DIQMTQSPSSLSASVGDRVTITCRASESVDHFGWSLVHWYQQKPGKAPKLLIYRADSLETGVPSRFSGSGSGTDFTLTISSLQPEDFATYYCQQSNEDPWTFGGGTKVEIKRTVAAPSVFIFPPSDEQLKSGTASVSCLLNNFYPREAKVQWKVDNALQSGNSQESVTEQDSKDSTYSLDSTLTLSKADYEKHKVYACEVTHQGLSSPVTKSFNRGEC
light 2: B9 light with K24R, D32E, N96H, E97K, V137S, S180K
chain 2: EVQLVESGGGLVQPGGSLRLSCAASGFTFSSYWMYWVRQAPGKGLEWVAAITPNAGEDYYPESVKGRFTISRDNAKNSLYLQMNSLRAEDTAVYYCARGHYYYTSYSLGYWGQGTLVTVSSASTKGPSVFPLAPSSKSTSGGTAALGCLVKDYFPEPVTVSWNSGALTSGVHTFPAVLQSSGLYSLSSVVTVPSSSLGTQTYICNVNHKPSNTKVDKKVEPKSC
- fold loss in IL-4 neutralization (CD23 bioassay) relative to IL13433-0006 [4]: ~6.5 fold

B12: IL4-1358 (antibody, IgG1, V domains shown)
VH: QVTLRESGPALVKPTQTLTLTCTFSGFSLSTWGEGVSWIRQPPGKGLEWLAHIYWDDDKRYNPSLKSRLTISKDTSRNQVVLTMTNMDPVDTATYYCARRETVFYWYFDVWGRGTPVTVSS
VL: DIQMTQSPSSLSASVGDRVTITCKASQSVDEDGDSYMNWYQQKPGKAPKLLIYAASNLESGVPSRFSGSGSGTDFTLTISSLQPEDFATYYCQQSNEDPPTFGGGTKVEIK
- CD23: Fold bioactivity relative to IL4-1285 [5]: 5.7 fold
- CD23 IC50 [pM] [5]: 16.8 pM

B13: IL4-0749 (antibody, human IgG1, kappa, V domains shown)
VH: B12 VH with Q1E, T31N, W32F, V36L, R113Q, P116T
VL: DIQMTQSPSSLSASVGDRVTITCRASQSVDEEGDSYMNWYQQKPGKAPKLLIYAASNLESGVPSRFSGSGSGTDFTLTISSLQPEDFATYYCQQSNEDPPTFGGGTKVEIKR
- CD23: Fold bioactivity relative to IL4-0002 [2]: 0.9 fold
- CD23 IC50 [pM] [2]: 2.4 pM

B14: IL4-1040 (antibody, human IgG1, kappa, V domains shown)
VH: B12 VH with Q1E, T31N, W32F, V36L, R113Q, P116T
VL: B13 VL with E97K
- CD23: Fold bioactivity relative to IL4-0002 [2]: 0.7 fold
- CD23 IC50 [pM] [2]: 3.2 pM

B15: IL4-0157 (antibody, IgG1, V domains shown)
VH: B12 VH with Q1E, T31N, W32F, V36L, N62S, P63T, S67T, R113Q, P116T
VL: B12 VL with K24R, D32E, N96H, E97K
- CD23: Fold bioactivity relative to IL4-0002 [2]: 0.2 fold
- CD23 IC50 [pM] [2]: 9.3 pM

B16: IL4-0037 (antibody, IgG1, V domains shown)
VH: B12 VH with Q1E, T31N, W32F, V36L, N62S, P63T, S67T, R113Q, P116T
VL: B12 VL
- CD23: Fold bioactivity relative to IL4-0002 [2]: 1.3 fold
- CD23 IC50 [pM] [2]: 1.6 pM
